Data from US6582902B1, “Method for deriving epitopes” (priority 1992, dated 2003).

Tested on: g10-reactive antibodies (anti-g10 serum)
Assay: Competition for immunoprecipitation of [35S] g10-U1-A fusion protein by anti-g10 serum
Type: binding, rabbit
Description: Panel A: Western blot of E. coli extracts containing various U1-A protein constructs. All extracts were produced from induced E. coli cells containing recombinant pET-8c T7 expression vectors in accordance with known techniques. See F. Studier et al., Meth. Enzym. 185, 60-89 (1991). U1-A cDNA was cloned into pET-8c either attached or not attached to the g10 peptide. Lanes: 1, 5 and 9: the pET-8c vector alone; 2, 6 and 10: g10-U1-A protein; 3, 7 and 11: U1-A protein; 4, 8 and 12: total HeLa cell extracts. Lanes 1-4 were probed with pre-immune rabbit serum; lanes 5-8 were probed with anti-g10 serum; and lanes 9-12 were probed with a U1/U2-specific autoimmune serum (patient). EW reacts with U1 RNA, U1-70K (70 kDa), U1-A (31 kDa) and U2-A′ (28.4 kDa) (lane 12). Panel B: Immunoprecipitation and competition analysis of [^35S]-methionine-labeled U1-A and g10-U1-A proteins expressed by in vitro transcription, and subsequent translation in rabbit reticulocyte lysates. Lanes: 1 and 2 show the amount of U1-A and g10-U1-A translation product, respectively, added to each immunoprecipitation reaction; 3: blank; 4 and 5: U1-A and g10-U1-A precipitated with serum EW (reactive with U1-A); 6 and 7: U1-A and g10-U1-A, respectively, precipitated with anti-g10 serum. In lanes 8-12, g10-U1-A was precipitated with anti-g10 serum in the presence of varying amounts of competitors as follows: lanes 8-11 contained the g10 peptide at concentrations of 27.8, 83.3, 250 and 750 nM, respectively; lane 12 contained a control peptide (sequence GKSRGFAFVEFK-amide) (SEQ ID NO:4) at a concentration of 25 mM. The faint lower band in all lanes represents either a degradation product or a premature translation termination product and is seen consistently in U1-A translations.
[^32P] labeled in vitro transcribed D10 RNA or [^35S] labeled in vitro translated g10 fusion protein (g10-U1A) was immunoprecipitated by the anti-g10 serum in the presence of various competitors. D10 RNA and g10 fusion protein bound in the immunoprecipitations were analyzed using denaturing polyacrylamide gels and autoradiography. […]

B1: D10 RNA: single RNA species selected from the degenerate pool by anti-g10 serum (SEQ ID NO:3); U1 stem II with loop UGGUGGAGCA (nucleic acid)
chain: GGGCCACCAACGACAUUGGGCGAGGCUUAUCCUGGUGGAGCAGGAUGUGCUGACCCCGUUGAUAUAAAUAGUGCCCAUGGAUC
modifications: chemistry not given here
notes: U1 stem II with loop UGGUGGAGCA
**Q.** With B1 as the molecule, how does the “competition with g10 fusion protein for binding to the antibody” value (FIG. 5C, 0.7 nM competitor RNA) read?
**A.** able to compete

**Q.** What about the “competition with [35S] labeled g10 fusion protein, increasing amounts of competitor” value (FIG. 5D, 0.0175-1.05 nM D10 RNA) of the same molecule?
**A.** able to progressively compete
